From patent US20220332813A1 (UNIVERSITY OF MARYLAND BALTIMORE, published 2022)

How the values were obtained:
[1] = biological target: T1, human recombinant tau (2N4R) (human, UniProt P10636-8 1-441); test: SPR, SorLA fragment 82-181 immobilised, increasing tau
T1 construct: Radio-iodinated in the cell assays; also called monomeric tau; full-length tau (2N4R)

[2] = biological target: T1, human recombinant tau (2N4R); test: SPR single cycle, VPS10P domain immobilised, 1:1 fit
[3] = biological target: T2, hyperphosphorylated 2N4R tau produced by Sf9 cells (human, UniProt P10636-8 1-441, hyperphosphorylated (produced in Sf9 insect cells, intermediate phosphorylation state); sites not stated); test: as above
T2 construct: His-tagged; also called SF9 tau; 2N4R SF9

[4] = biological target: T1, human recombinant tau (2N4R); test: SPR, from kinetic parameters of the 1:1 fit
[5] = biological target: T2, hyperphosphorylated 2N4R tau produced …; test: SPR, from kinetic parameters of the 1:1 fit
[6] = biological target: T2, hyperphosphorylated 2N4R tau produced …; test: SPR equilibrium (KD eq, Req fit)

T1 sequence (P10636 other isoform, or with tags, fused parts or gaps limits assumed): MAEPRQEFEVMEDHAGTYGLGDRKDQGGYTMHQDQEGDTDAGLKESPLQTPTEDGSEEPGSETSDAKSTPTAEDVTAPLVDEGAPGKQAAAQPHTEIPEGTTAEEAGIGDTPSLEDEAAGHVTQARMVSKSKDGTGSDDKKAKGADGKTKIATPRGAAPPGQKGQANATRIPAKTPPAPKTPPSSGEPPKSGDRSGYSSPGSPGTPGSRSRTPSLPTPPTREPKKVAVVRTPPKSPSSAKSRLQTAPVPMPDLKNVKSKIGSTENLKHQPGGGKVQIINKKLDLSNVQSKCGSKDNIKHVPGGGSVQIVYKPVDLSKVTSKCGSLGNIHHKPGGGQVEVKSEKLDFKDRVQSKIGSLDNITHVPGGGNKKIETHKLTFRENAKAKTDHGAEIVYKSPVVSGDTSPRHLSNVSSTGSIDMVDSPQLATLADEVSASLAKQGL
T2 sequence (P10636 other isoform, or with tags, fused parts or gaps limits assumed): as above

B1: commercially available fragment of SorLA comprising residues 82-181 (receptor)
chain: SAALQPEPIKVYGQVSLNDSHNQMVVHWAGEKSNVIVALARDSLALARPKSSDVYVSYDYGKSFKKISDKLNFGLGNRSEAVIAQFYHSPADNKRYIFAD
notes: The range may be a misprint for 82-753; also called SorLA fragment
Kd [1]: 0.04 µM

B2: recombinant human SORLA VPS10P domain (residues 82-753) (receptor)
chain: SAALQPEPIKVYGQVSLNDSHNQMVVHWAGEKSNVIVALARDSLALARPKSSDVYVSYDYGKSFKKISDKLNFGLGNRSEAVIAQFYHSPADNKRYIFADAYAQYLWITFDFCNTLQGFSIPFRAADLLLHSKASNLLLGFDRSHPNKQLWKSDDFGQTWIMIQEHVKSFSWGIDPYDKPNTIYIERHEPSGYSTVFRSTDFFQSRENQEVILEEVRDFQLRDKYMFATKVVHLLGSEQQSSVQLWVSFGRKPMRAAQFVTRHPINEYYIADASEDQVFVCVSHSNNRTNLYISEAEGLKFSLSLENVLYYSPGGAGSDTLVRYFANEPFADFHRVEGLQGVYIATLINGSMNEENMRSVITFDKGGTWEFLQAPAFTGYGEKINCELSQGCSLHLAQRLSQLLNLQLRRMPILSKESAPGLIIATGSVGKNLASKTNVYISSSAGARWREALPGPHYYTWGDHGGIITAIAQGMETNELKYSTNEGETWKTFIFSEKPVFVYGLLTEPGEKSTVFTIFGSNKENVHSWLILQVNATDALGVPCTENDYKLWSPSDERGNECLLGHKTVFKRRTPHATCFNGEDFDRPVVVSNCSCTREDYECDFGFKMSEDLSLEVCVPDPEFSGKSYSPPVPCPVGSTYRRTRGYRKISGDTCSGGDVEARLEGELVPCP
notes: also called SORL1 VPS10 domain; R&D Systems 9880-LA
koff [2]: 0.41 s⁻¹ | kon [2]: 5e+07 M⁻¹ s⁻¹ | koff [3]: 0.0061 s⁻¹ | kon [3]: 85000 M⁻¹ s⁻¹ | Kd [4]: 0.015 µM | Kd [5]: 0.078 µM | Kd [6]: 0.095 µM
